This is an account of results in paper PMC6980832, “Crystal structures of Triosephosphate Isomerases from Taenia solium and Schistosoma mansoni provide insights for vaccine rationale and drug design against helminth parasites” (PLoS Neglected Tropical Diseases, 2020).

Series [1] concerns the molecule itself. As to the kind of experiment: crystal structure; sitting drop; protein 20 mg/ml incubated with 10 mM 2-phosphoglyceric acid in storage buffer; homodimer seen in the crystal.
Series [2] concerns the molecule itself. Briefly: SEC; gel filtration elution profile of wild-type and point mutants of SmTPI; conditions not shown. (In gel filtration, larger molecules generally elute earlier.)

B1: Triosephosphate isomerase from Taenia solium (enzyme)
chain: GPHMTRKLFVGGNWKMNGSYSHINTFFDTLQKADTDPNADIVIGVPACYLKYAQDKAPKGIKIAAENCYKVGSGAFTGEISTEMIKDCGCEWVILGHSERRHIFGESNELIGEKVKHALDSGLNVIPCIGELLSEREAGKTNDVCFAQMDAIAKNVPSKEAWDKVVIAYEPVWAIGTGKTATPAQAQEVHKVVRDWIRKHVDAGIADKVRILYGGSVTASNAKDLGTQPDVDGFLVGGASLKPDFITIINARR
notes: three additional amino acids (Gly, Pro, His) before the initial methionine, left from the modified pET19 vector; triosephosphate isomerase, Taenia solium, GenBank AAG21132.1; all 250 amino acids visible in the crystal structure; also called TsTPI; source: E. coli strain devoid of its endogenous triosephosphate isomerase gene, purified (two purification steps)
As to B1, the binding result in series [1] is reported as “binds”.

B2: Triosephosphate isomerase from Schistosoma mansoni (enzyme)
chain: GPHMSGSRKFFVGGNWKMNGSRDDNDKLLKLLSEAHFDDNTEVLIAPPSVFLHEIRKSLKKEIHVAAQNCYKVSKGAFTGEISPAMIRDIGCDWVILGHSERRNIFGESDELIAEKVQHALAEGLSVIACIGETLSERESNKTEEVCVRQLKAIANKIKSADEWKRVVVAYEPVWAIGTGKVATPQQAQEVHNFLRKWFKTNAPNGVDEKIRIIYGGSVTAANCKELAQQHDVDGFLVGGASLKPEFTEICKARQR
notes: three additional amino acids (Gly, Pro, His) before the initial methionine, left from the modified pET19 vector; triosephosphate isomerase, Schistosoma mansoni, XP_018647623; all 253 amino acids visible in the crystal structure; also called SmTPI; wild-type SmTPI; source: E. coli strain devoid of its endogenous triosephosphate isomerase gene, purified (two purification steps)
A word on the stoichiometry N: it is a count of units in the complex or per binding partner. On to B2, for which the “stoichiometry N” value in series [2] came to 2.
